Data on 1 molecule can be found in paper PMC9292375, “Structural basis of an epitope tagging system derived from Haloarcula marismortui bacteriorhodopsin I D94N and its monoclonal antibody GD‐26” (The Febs Journal, 2021).

Values joined by “and” are separate entries in the source; they are usually repeats but may differ in a detail not shown here. Identical values can stand only once.

Test in all cases: ITC; synthetic peptide in the syringe titrated into GD-26 Fab or GD-26 IgG (10 μM) in the cell; 25 °C; 50 mM Tris, 150 mM NaCl, pH 7.5; one-set-of-sites model
Conditions in all cases: both partners purified

In test [1] the target is T1, TD peptide (GTGATPADD), peptide V from the C terminus of HmBRI D94N (Haloarcula marismortui HmBRI C terminus …).
T1 construct: nine residues at the C terminus of Haloarcula marismortui bacteriorhodopsin I (HmBRI); residue numbers 1-9 count on: the TD peptide; also called TD tag; wild-type TD peptide; source: synthetic peptide
T1 chain: GTGATPADD

A further test addresses T2, TD peptide A7Q (A7Q (stands in the printed letters)).
T2 construct: TD peptide (C terminus of HmBRI) with A7Q; numbers count on: the TD peptide; source: synthetic peptide
T2 chain: GTGATPQDD

For a further test, the target named is T3, TD peptide A7S (A7S (stands in the printed letters)).
T3 construct: TD peptide (C terminus of HmBRI) with A7S; numbers count on: the TD peptide; source: synthetic peptide
T3 chain: GTGATPSDD

The target in a further test is T4, TD peptide A7P (A7P (stands in the printed letters)).
T4 construct: TD peptide (C terminus of HmBRI) with A7P; numbers count on: the TD peptide; source: synthetic peptide
T4 chain: GTGATPPDD

Another test addresses T5, TD peptide G1M (G1M (stands in the printed letters)).
T5 construct: TD peptide (C terminus of HmBRI) with G1M; numbers count on: the TD peptide; source: synthetic peptide
T5 chain: MTGATPADD

Test [2] concerns the target T6, TD peptide M1 (Met attached to the N terminus) (Haloarcula marismortui HmBRI C-terminal …).
T6 construct: TD peptide (C terminus of HmBRI) with one Met attached before Gly1; source: synthetic peptide
T6 chain: MGTGATPADD

Test [3] addresses T1, TD peptide (GTGATPADD), peptide V from ….

B1: GD-26 Fab (antigen-binding fragment of monoclonal antibody GD-26) (Fab, V domains shown)
VH: QVQLRQSGPELVKPGASVKMSCRASGYTFTNYNIHWVRQRPGQGLEWIGWIYPVDGTTKYNEKFKDKTTLTSDKSSSTAYMSLSGLTSEDSAIYFCARGLDNWGQGTSVTVSS
VL: DVVLTQTPLSLSVTIGQPASISCRSSQRLLYSNGKTYLNWFQQRPGQAPKYLMFQVSKLGPGIPARFSGSGSETDFTLKISRVEAEDLGVYYCFQGTFFPHTFGGGTKLEMK
notes: Fab heavy chain of GD-26; whole chain in PDB 7DOH; light chain of GD-26; the Fab was secreted; source: Expi293F, transient co-transfection, secreted; purified (HisTrap Excel, Superdex 200 gel filtration)
With B1, the Kd in test [1] is 19.8 nM and 19.4 nM; with TD peptide A7Q, 59.3 nM; in the test with TD peptide A7S it was 72.7 nM; with TD peptide A7P, 1040 nM; with TD peptide G1M, 46.5 nM; in test [2] it was 25.1 nM. The Kd in test [3] amounted to 12 nM. The dH in test [1] is -13.4 kcal/mol. Further, in test [1], the “stoichiometry N” value worked out at 0.93 sites.
